Experiment in all cases: cell-based or functional assay
Test [1] deals with T1, human PTH-1 receptor (human, UniProt Q03431 27-593).
T1 sequence (looked up): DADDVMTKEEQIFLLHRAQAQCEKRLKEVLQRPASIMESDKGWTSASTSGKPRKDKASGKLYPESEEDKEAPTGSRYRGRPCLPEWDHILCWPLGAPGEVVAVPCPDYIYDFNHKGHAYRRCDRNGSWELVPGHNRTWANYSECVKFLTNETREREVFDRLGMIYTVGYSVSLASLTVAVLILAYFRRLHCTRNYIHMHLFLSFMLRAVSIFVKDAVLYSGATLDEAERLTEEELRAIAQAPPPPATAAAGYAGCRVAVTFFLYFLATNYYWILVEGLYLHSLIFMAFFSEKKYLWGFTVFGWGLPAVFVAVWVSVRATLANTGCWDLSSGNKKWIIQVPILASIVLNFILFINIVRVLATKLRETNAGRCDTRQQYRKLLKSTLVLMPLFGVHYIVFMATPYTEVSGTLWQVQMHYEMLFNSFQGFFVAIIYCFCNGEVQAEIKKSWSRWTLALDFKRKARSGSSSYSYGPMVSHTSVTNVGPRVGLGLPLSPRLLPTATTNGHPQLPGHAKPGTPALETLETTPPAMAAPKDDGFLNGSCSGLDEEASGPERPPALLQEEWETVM

Test [2] has as its target T1, human PTH-1 receptor. This is another data set of the same source.
For another test, the target named is T2, rat PTH-1 receptor (rat, UniProt P25961 27-591).
T2 sequence (looked up): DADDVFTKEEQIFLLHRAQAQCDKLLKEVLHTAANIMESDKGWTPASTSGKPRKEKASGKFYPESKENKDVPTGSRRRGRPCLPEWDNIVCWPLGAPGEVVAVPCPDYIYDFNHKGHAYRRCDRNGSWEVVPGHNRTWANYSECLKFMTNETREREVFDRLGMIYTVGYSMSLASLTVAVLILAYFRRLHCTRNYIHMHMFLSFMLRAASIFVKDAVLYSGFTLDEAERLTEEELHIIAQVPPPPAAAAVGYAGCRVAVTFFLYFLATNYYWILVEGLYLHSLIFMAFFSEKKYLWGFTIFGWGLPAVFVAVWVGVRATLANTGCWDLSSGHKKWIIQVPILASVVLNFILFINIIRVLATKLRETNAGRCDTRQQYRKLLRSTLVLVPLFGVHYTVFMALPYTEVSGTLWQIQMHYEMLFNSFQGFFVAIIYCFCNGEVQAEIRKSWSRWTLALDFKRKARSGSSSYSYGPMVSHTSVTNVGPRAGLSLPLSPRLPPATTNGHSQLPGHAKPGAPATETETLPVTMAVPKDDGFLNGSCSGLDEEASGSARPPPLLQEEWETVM

A further test deals with human PTH-2 receptor (human, UniProt P49190 25-550).
Sequence of human PTH-2 receptor (P49190 25-550): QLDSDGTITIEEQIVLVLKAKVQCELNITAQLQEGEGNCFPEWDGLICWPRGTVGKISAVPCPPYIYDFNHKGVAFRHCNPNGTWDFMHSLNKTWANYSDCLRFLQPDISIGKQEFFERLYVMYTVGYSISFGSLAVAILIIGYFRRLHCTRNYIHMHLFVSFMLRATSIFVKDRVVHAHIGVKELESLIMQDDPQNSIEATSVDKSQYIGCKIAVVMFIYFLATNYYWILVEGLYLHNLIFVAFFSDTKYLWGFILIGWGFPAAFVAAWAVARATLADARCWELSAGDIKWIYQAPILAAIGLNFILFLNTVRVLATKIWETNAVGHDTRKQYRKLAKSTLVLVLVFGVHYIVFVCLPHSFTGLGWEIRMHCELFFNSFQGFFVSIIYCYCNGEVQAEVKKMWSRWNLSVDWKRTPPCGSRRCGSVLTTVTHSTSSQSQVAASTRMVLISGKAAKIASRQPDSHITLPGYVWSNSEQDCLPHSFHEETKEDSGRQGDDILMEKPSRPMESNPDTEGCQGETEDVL
Test [3] deals with truncated human PTH-1 receptor hΔNt (human), Q03431.
In test [4] the target is T1, human PTH-1 receptor. The source holds these as a separate data set.
For test [5], the target named is T1, human PTH-1 receptor. The source holds these as a separate data set.

The text below walks through data of patent EP1222208B1 (THE GENERAL HOSPITAL CORPORATION, dated 2008).

“And” between values parts separate entries of the source, which are not always exact repeats. Identical values can stand only once. Square brackets hold non-standard residues; d marks the D form. Ends that are not written are not given here. Nle = CCCC[C@H](N)C(=O)O

For the molecule AVAEIQLMHARAKW-NH2 [[A3,A10,R11,A12,W14]rPTH(1-14)amide], the “cAMP EC50, HKRK-B7 cells” value with human PTH-1 receptor [1] is -6.3 Log M and 0.6 µM. Also, the “cAMP potency relative to native PTH(1-14), LLC-PK1 cells stably expressing the hPTH-1 receptor” value with human PTH-1 receptor [2] came out at 220 fold. In addition, in the test with rat PTH-1 receptor, the “cAMP EC50, ROS 17/2.8 cells” value is -5.5 Log M.

Turning to AVSEIQL[Nle]HNLGKHLASVER[Nle]QWLRKKLQDVHNY-NH2 [[Nle^8,21,Tyr^34]-rPTH(1-34)NH2], the “cAMP EC50, LLC-P2R-22 cells” value with human PTH-2 receptor is -8.4 Log M and 0.0044 µM. Further, in the test with human PTH-1 receptor [1], the “cAMP EC50, HKRK-B7 cells” value was -8.6 Log M and 0.0033 µM. The same molecule registered a cAMP Emax, COS-7 cells, hDeINt (picomole/well) in test [3] of 243. In the test with human PTH-1 receptor [4], the “cAMP EC50, COS-7 cells, WT hPTH-1 receptor” value (from here on “cAMP EC50, COS-7 cells”) is -9.2 Log M and 0.0007 µM; the “cAMP Emax, COS-7 cells, WT hPTH-1 receptor” value stood at 226 picomole/well.

For the molecule AVAEIQLMHARAK-NH2 [[A3,A10,R11,A12]rPTH(1-13)], in the test with human PTH-2 receptor, the “cAMP EC50, LLC-P2R-22 cells” value was -4 Log M and 106 µM. The “cAMP EC50, HKRK-B7 cells” value with human PTH-1 receptor [1] is -5.6 Log M and 2.4 µM.

As for AVAEIQLMHAR-NH2 [[A3,A10,R11]rPTH(1-11)], the “cAMP EC50, HKRK-B7 cells” value with human PTH-1 receptor [1] was -4.8 Log M and 17.1 µM. This molecule also gave a cAMP Emax, COS-7 cells, hDeINt (picomole/well) in test [3] of 243. Further, in the test with human PTH-1 receptor [4], the “cAMP EC50, COS-7 cells” value was -4.6 Log M and 29.1 µM; the “cAMP Emax, COS-7 cells, WT hPTH-1 receptor” value was 238 picomole/well.

In the case of SVSEIQLMHNLGKHLNSMERVEWLRKKLQDVHNY-NH2 [[Tyr^34]human (h)PTH(1-34)NH2], in the test with human PTH-1 receptor [1], the “cAMP EC50, HKRK-B7 cells” value was -8.4 Log M and 0.004 µM. This molecule also returned a cAMP Emax, COS-7 cells, hDeINt (picomole/well) in test [3] of 238. Further, in the test with human PTH-1 receptor [4], the “cAMP EC50, COS-7 cells” value is -9.3 Log M and 0.0005 µM; the “cAMP Emax, COS-7 cells, WT hPTH-1 receptor” value came out at 226 picomole/well. In the test with human PTH-1 receptor [5], the “cAMP EC50, SAOS-2 cells” value was -9.28 Log M and 0.00052 µM.

In the case of AVSEIQLMHNLGKH-NH2 [native rat (r)PTH(1-14)NH2], in the test with human PTH-1 receptor [1], the “cAMP EC50, HKRK-B7 cells” value is -3.9 Log M and 133 µM. In addition, the cAMP Emax, COS-7 cells, hDeINt (picomole/well) in test [3] came to 222. Further, in the test with human PTH-1 receptor [4], the “cAMP EC50, COS-7 cells” value is -3.8 Log M and 152 µM; the “cAMP Emax, COS-7 cells, WT hPTH-1 receptor” value was 221 picomole/well.

For the molecule AVAEIQLMHARAKH-NH2 [[A3,A10,R11,A12]rPTH(1-14)amide], the “cAMP EC50, LLC-P2R-22 cells” value with human PTH-2 receptor was -3.9 Log M and 126 µM. Moreover, in the test with human PTH-1 receptor [1], the “cAMP EC50, HKRK-B7 cells” value is -6.1 Log M and 0.83 µM. In test [3], this molecule displayed a cAMP Emax, COS-7 cells, hDeINt (picomole/well) of 250 and a cAMP potency relative to native PTH(1-14), truncated hPTH-1 receptor of 100 fold. Further, in the test with human PTH-1 receptor [2], the “cAMP potency relative to native PTH(1-14), LLC-PK1 cells stably expressing the hPTH-1 receptor” value was found to be 160 fold and the “cAMP potency relative to native PTH(1-14), LLC-PK-1 cells stably expressing the hPTH-1 receptor” value came out at 100 fold. Besides, in the test with human PTH-1 receptor [4], the “cAMP EC50, COS-7 cells” value is -6 Log M and 4.66 µM; the “cAMP Emax, COS-7 cells, WT hPTH-1 receptor” value was found to be 243 picomole/well.

Consider AVAEIQLMHARA-NH2 [[A3,A10,R11,A12]rPTH(1-12)], for which the “cAMP EC50, LLC-P2R-22 cells” value in the test with human PTH-2 receptor is -3.5 Log M and 342 µM. Also, the “cAMP EC50, HKRK-B7 cells” value in the test with human PTH-1 receptor [1] is -5 Log M and 10.2 µM.

Regarding AVAEIQLMHQRAKH-NH2 [[A3,Q10,R11,A12]rPTH(1-14)], the “cAMP EC50, HKRK-B7 cells” value with human PTH-1 receptor [1] was -6.1 Log M and 0.8 µM.
